kon, Kd and koff data for two molecules are collected here from patent US20220267751A1 (MONASH UNIVERSITY, published 2022).

B1: recombinant alpha 2-antiplasmin (other, UniProt P08697 40-491, looked up)
chain: NQEQVSPLTLLKLGNQEPGGQTALKSPPGVCSRDPTPEQTHRLARAMMAFTADLFSLVAQTSTCPNLILSPLSVALALSHLALGAQNHTLQRLQQVLHAGSGPCLPHLLSRLCQDLGPGAFRLAARMYLQKGFPIKEDFLEQSEQLFGAKPVSLTGKQEDDLANINQWVKEATEGKIQEFLSGLPEDTVLLLLNAIHFQGFWRNKFDPSLTQRDSFHLDEQFTVPVEMMQARTYPLRWFLLEQPEIQVAHFPFKNNMSFVVLVPTHFEWNVSQVLANLSWDTLHPPLVWERPTKVRLPKLYLKHQMDLVATLSQLGLQELFQAPDLRGISEQSLVVSGVQHQSTLELSEVGVEAAAATSIAMSRMSLSSFSVNRPFLFFIFEDTTGLPLFVGSVRNPNPSAPRELKEQQDSPGNKDFLQSLKGFPRGDKLFGPDLKLVPPMEEDYPQFGSPK
notes: Serpin, immobilised on a Ni2+-NTA chip; also called α2-AP; α2AP
B2: recombinant plasmin (enzyme)
heavy: EPLDDYVNTQGASLFSVTKKQLGAGSIEECAAKCEEDEEFTCRAFQYHSKEQQCVIMAENRKSSIIIRMRDVVLFEKKVYLSECKTGNGKNYRGTMSKTKNGITCQKWSSTSPHRPRFSPATHPSEGLEENYCRNPDNDPQGPWCYTTDPEKRYDYCDILECEEECMHCSGENYDGKISKTMSGLECQAWDSQSPHAHGYIPSKFPNKNLKKNYCRNPDRELRPWCFTTDPNKRWELCDIPRCTTPPPSSGPTYQCLKGTGENYRGNVAVTVSGHTCQHWSAQTPHTHNRTPENFPCKNLDENYCRNPDGKRAPWCHTTNSQVRWEYCKIPSCDSSPVSTEQLAPTAPPELTPVVQDCYHGDGQSYRGTSSTTTTGKKCQSWSSMTPHRHQKTPENYPNAGLTMNYCRNPDADKGPWCFTTDPSVRWEYCNLKKCSGTEASVVAPPPVVLLPDVETPSEEDCMFGNGKGYRGKRATTVTGTPCQDWAAQEPHRHSIFTPETNPRAGLEKNYCRNPDGDVGGPWCYTTNPRKLYDYCDVPQCAAPSFDCGKPQVEPKKCPGR
light: VVGGCVAHPHSWPWQVSLRTRFGMHFCGGTLISPEWVLTAAHCLEKSPRPSSYKVILGAHQEVNLEPHVQEIEVSRLFLEPTRKDIALLKLSSPAVITDKVIPACLPSPNYVVADRTECFITGWGETQGTFGAGLLKEAQLPVIENKVCNRYEFLNGRVQSTELCAGHLAGGTDSCQGDSGGPLVCFEKDKYILQGVTSWGLGCARPNKPGVYVRVSRFVTWIEGVMRNN
notes: Made by cleaving rPlg with tPA; also called rPlm; recombinant Plm

For assay [1], the target named is T1, native plasminogen (purchased from Merck, purified from human plasma) (human, UniProt P00747 20-810).
T1 construct: mature; also called native Plg; nPlg
As to the kind of experiment: SPR (Biacore T200), α2-AP on Ni2+-NTA chip, two-state reaction model, ka1; ka1, first step of the two-state model. In general terms: Surface plasmon resonance follows binding to a sensor surface in real time, without labels.

The target of assay [2] is T1, native plasminogen (purchased from …). As to the kind of experiment: SPR (Biacore T200), α2-AP on Ni2+-NTA chip, two-state reaction model; overall KD of the two-state reaction model.
The target is the same in assay [3]. In words: SPR (Biacore T200), α2-AP on Ni2+-NTA chip, two-state reaction model, kd1; kd1, first step of the two-state model.
The target in assay [4] is T2, native plasmin (purchased from Haematologic Technologies) (UniProt P00747 97-580; P00747 581-810, limits assumed).
T2 construct: Plasmin has two disulphide-linked chains (heavy and light); also called native Plm
As to the kind of experiment: SPR (Biacore T200), α2-AP on Ni2+-NTA chip, 1:1 Langmuir model.

The assay “recombinant plasmin” concerns the target B2. The description is as above.
Another assay deals with T3, recombinant plasminogen (human, UniProt P00747 20-810).
T3 construct: also called rPlg; recombinant Plg
Described as above.

In assay [5] the target is T4, recombinant streptokinase from Streptococcus pyrogenes (so in the source) (Streptococcus pyrogenes (so in the source)).
T4 construct: Immobilised on a Ni2+-NTA chip; also called SK
In words: SPR (Biacore T200), SK on Ni2+-NTA chip, 1:1 Langmuir model.

In general, kon refers to the second-order rate constant of association. For orientation: Kd means the free concentration of one partner at which half of the binding sites on the other are occupied at equilibrium, for simple one-to-one binding. As usually defined, the koff is the first-order rate constant of dissociation.

With B1, the association rate constant (kon) came to 1.1e+06 M⁻¹ s⁻¹ in assay [1], 5.1e+06 M⁻¹ s⁻¹ in assay [4], 160000 M⁻¹ s⁻¹ with recombinant plasmin and 150000 M⁻¹ s⁻¹ with recombinant plasminogen. Besides, the dissociation constant (Kd) in assay [2] was determined as 9.8 nM; in assay [4] it was 0.85 nM; with recombinant plasmin, 0.68 nM; with recombinant plasminogen it was 3.4 nM. The off-rate constant (koff) is 0.065 s⁻¹ in assay [3], 0.0043 s⁻¹ in assay [4], 0.00011 s⁻¹ in the assay with recombinant plasmin and 0.0005 s⁻¹ with recombinant plasminogen.

For the molecule B2, in assay [5], the dissociation constant (Kd) stood at 0.04 nM, the koff came out at 1.6e-05 s⁻¹ and the on-rate (kon) worked out at 410000 M⁻¹ s⁻¹.
